Source: patent US20220074941A1, “HSP90 COMBINATION THERAPY” (Sloan-Kettering Institute for Cancer Research, priority 2011, published 2022)

B1: NFKB1 (protein)
chain: MAEDDPYLGRPEQMFHLDPSLTHTIFNPEVFQPQMALPTDGPYLQILEQPKQRGFRFRYVCEGPSHGGLPGASSEKNKKSYPQVKICNYVGPAKVIVQLVTNGKNIHLHAHSLVGKHCEDGICTVTAGPKDMVVGFANLGILHVTKKKVFETLEARMTEACIRGYNPGLLVHPDLAYLQAEGGGDRQLGDREKELIRQAALQQTKEMDLSVVRLMFTAFLPDSTGSFTRRLEPVVSDAIYDSKAPNASNLKIVRMDRTAGCVTGGEEIYLLCDKVQKDDIQIRFYEEEENGGVWEGFGDFSPTDVHRQFAIVFKTPKYKDINITKPASVFVQLRRKSDLETSEPKPFLYYPEIKDKEEVQRKRQKLMPNFSDSFGGGSGAGAGGGGMFGSGGGGGGTGSTGPGYSFPHYGFPTYGGITFHPGTTKSNAGMKHGTMDTESKKDPEGCDKSDDKNTVNLFGKVIETTEQDQEPSEATVGNGEVTLTYATGTKEESAGVQDNLFLEKAMQLAKRHANALFDYAVTGDVKMLLAVQRHLTAVQDENGDSVLHLAIIHLHSQLVRDLLEVTSGLISDDIINMRNDLYQTPLHLAVITKQEDVVEDLLRAGADLSLLDRLGNSVLHLAAKEGHDKVLSILLKHKKAALLLDHPNGDGLNAIHLAMMSNSLPCLLLLVAAGADVNAQEQKSGRTALHLAVEHDNISLAGCLLLEGDAHVDSTTYDGTTPLHIAAGRGSTRLAALLKAAGADPLVENFEPLYDLDDSWENAGEDEGVVPGTTPLDMATSWQVFDILNGKPYEPEFTSDDLLAQGDMKQLAEDVKLQLYKLLEIPDPDKNWATLAQKLGLGILNNAFRLSPAPSKTLMDNYEVSGGTVRELVEALRQMGYTEAIEVIQAASSPVKTTSQAHSLPLSPASTRQQIDELRDSDSVCDSGVETSFRKLSFTESLTSGASLLTLNKMPHDYGQEGPLEGKI
B2: SLC3A2 (protein, UniProt P08195 1-630, looked up)
Amino acid transporter heavy …: MELQPPEASIAVVSIPRQLPGSHSEAGVQGLSAGDDSELGSHCVAQTGLELLASGDPLPSASQNAEMIETGSDCVTQAGLQLLASSDPPALASKNAEVTGTMSQDTEVDMKEVELNELEPEKQPMNAASGAAMSLAGAEKNGLVKIKVAEDEAEAAAAAKFTGLSKEELLKVAGSPGWVRTRWALLLLFWLGWLGMLAGAVVIIVRAPRCRELPAQKWWHTGALYRIGDLQAFQGHGAGNLAGLKGRLDYLSSLKVKGLVLGPIHKNQKDDVAQTDLLQIDPNFGSKEDFDSLLQSAKKKSIRVILDLTPNYRGENSWFSTQVDTVATKVKDALEFWLQAGVDGFQVRDIENLKDASSFLAEWQNITKGFSEDRLLIAGTNSSDLQQILSLLESNKDLLLTSSYLSDSGSTGEHTKSLVTQYLNATGNRWCSWSLSQARLLTSFLPAQLLRLYQLMLFTLPGTPVFSYGDEIGLDAAALPGQPMEAPVMLWDESSFPDIPGAVSANMTVKGQSEDPGSLLSLFRRLSDQRSKERSLLHGDFHAFSAGPGLFSYIRHWDQNERFLVVLNFGDVGLSAGLQASDLPASASLPAKADLLLSTQPGREEGSPLELERLKLEPHEGLLLRFPYAA
B3: DIABLO (protein, UniProt Q9NR28 22-239, looked up)
Diablo IAP-binding …: LCVPVVANFKKRCFSELIRPWHKTVTIGFGVTLCAVPIAQKSEPHSLSSEALMRRAVSLVTDSTSTFLSQTTYALIEAITEYTKAVYTLTSLYRQYTSLLGKMNSEEEDEVWQVIIGARAEMTSKHQEYLKLETTWMTAVGLSEMAAEAAYQTGADQASITARNHIQLVKLQVEEVHQLSRKAETKLAEAQIEELRQKTQEEGEERAESEQEAYLRED
B4: ZC3HAV1 (protein, UniProt Q7Z2W4 2-902, looked up)
Zinc finger CCCH-type …: ADPEVCCFITKILCAHGGRMALDALLQEIALSEPQLCEVLQVAGPDRFVVLETGGEAGITRSVVATTRARVCRRKYCQRPCDNLHLCKLNLLGRCNYSQSERNLCKYSHEVLSEENFKVLKNHELSGLNKEELAVLLLQSDPFFMPEICKSYKGEGRQQICNQQPPCSRLHICDHFTRGNCRFPNCLRSHNLMDRKVLAIMREHGLNPDVVQNIQDICNSKHMQKNPPGPRAPSSHRRNMAYRARSKSRDRFFQGSQEFLASASASAERSCTPSPDQISHRASLEDAPVDDLTRKFTYLGSQDRARPPSGSSKATDLGGTSQAGTSQRFLENGSQEDLLHGNPGSTYLASNSTSAPNWKSLTSWTNDQGARRKTVFSPTLPAARSSLGSLQTPEAVTTRKGTGLLSSDYRIINGKSGTQDIQPGPLFNNNADGVATDITSTRSLNYKSTSSGHREISSPRIQDAGPASRDVQATGRIADDADPRVALVNDSLSDVTSTTSSRVDDHDSEEICLDHLCKGCPLNGSCSKVHFHLPYRWQMLIGKTWTDFEHMETIEKGYCNPGIHLCSVGSYTINFRVMSCDSFPIRRLSTPSSVTKPANSVFTTKWIWYWKNESGTWIQYGEEKDKRKNSNVDSSYLESLYQSCPRGVVPFQAGSRNYELSFQGMIQTNIASKTQKDVIRRPTFVPQWYVQQMKRGPDHQPAKTSSVSLTATFRPQEDFCFLSSKKYKLSEIHHLHPEYVRVSEHFKASMKNFKIEKIKKIENSELLDKFTWKKSQMKEEGKLLFYATSRAYVESICSNNFDSFLHETHENKYGKGIYFAKDAIYSHKNCPYDAKNVVMFVAQVLVGKFTEGNITYTSPPPQFDSCVDTRSNPSVFVIFQKDQVYPQYVIEYTEDKACVIS
B5: PSPC1 (protein, UniProt Q8WXF1 1-523, looked up)
Paraspeckle component 1: MMLRGNLKQVRIEKNPARLRALESAVGESEPAAAAAMALALAGEPAPPAPAPPEDHPDEEMGFTIDIKSFLKPGEKTYTQRCRLFVGNLPTDITEEDFKRLFERYGEPSEVFINRDRGFGFIRLESRTLAEIAKAELDGTILKSRPLRIRFATHGAALTVKNLSPVVSNELLEQAFSQFGPVEKAVVVVDDRGRATGKGFVEFAAKPPARKALERCGDGAFLLTTTPRPVIVEPMEQFDDEDGLPEKLMQKTQQYHKEREQPPRFAQPGTFEFEYASRWKALDEMEKQQREQVDRNIREAKEKLEAEMEAARHEHQLMLMRQDLMRRQEELRRLEELRNQELQKRKQIQLRHEEEHRRREEEMIRHREQEELRRQQEGFKPNYMENREQEMRMGDMGPRGAINMGDAFSPAPAGNQGPPPMMGMNMNNRATIPGPPMGPGPAMGPEGAANMGTPMMPDNGAVHNDRFPQGPPSQMGSPMGSRTGSETPQAPMSGVGPVSGGPGGFGRGSQGGNFEGPNKRRRY
B6: STRN (protein, UniProt O43815 1-780, looked up)
Striatin: MDEQAGPGVFFSNNHPGAGGAKGLGPLAEAAAAGDGAAAAGAARAQYSLPGILHFLQHEWARFEVERAQWEVERAELQAQIAFLQGERKGQENLKKDLVRRIKMLEYALKQERAKYHKLKYGTELNQGDMKPPSYDSDEGNETEVQPQQNSQLMWKQGRQLLRQYLQEVGYTDTILDVKSKRVRALLGFSSDVTDREDDKNQDSVVNGTEAEVKETAMIAKSELTDSASVLDNFKFLESAAADFSDEDEDDDVDGREKSVIDTSTIVRKKALPDSGEDRDTKEALKEFDFLVTSEEGDNESRSAGDGTDWEKEDQCLMPEAWNVDQGVITKLKEQYKKERKGKKGVKRPNRSKLQDMLANLRDVDELPSLQPSVGSPSRPSSSRLPEHEINRADEVEALTFPPSSGKSFIMGADEALESELGLGELAGLTVANEADSLTYDIANNKDALRKTWNPKFTLRSHFDGIRALAFHPIEPVLITASEDHTLKMWNLQKTAPAKKSTSLDVEPIYTFRAHKGPVLCVVMSSNGEQCYSGGTDGLIQGWNTTNPNIDPYDSYDPSVLRGPLLGHTDAVWGLAYSAAHQRLLSCSADGTLRLWNTTEVAPALSVFNDTKELGIPASVDLVSSDPSHMVASFSKGYTSIFNMETQQRILTLESNVDTTANSSCQINRVISHPTLPISITAHEDRHIKFYDNNTGKLIHSMVAHLEAVTSLAVDPNGLYLMSGSHDCSIRLWNLESKTCIQEFTAHRKKFEESIHDVAFHPSKCYIASAGADALAKVFV
B7: PHB (protein, UniProt P35232 2-272, looked up)
Prohibitin 1: AAKVFESIGKFGLALAVAGGVVNSALYNVDAGHRAVIFDRFRGVQDIVVGEGTHFLIPWVQKPIIFDCRSRPRNVPVITGSKDLQNVNITLRILFRPVASQLPRIFTSIGEDYDERVLPSITTEILKSVVARFDAGELITQRELVSRQVSDDLTERAATFGLILDDVSLTHLTFGKEFTEAVEAKQVAQQEAERARFVVEKAEQQKKAAIISAEGDSKAAELIANSLATAGDGLIELRKLEAAEDIAYQLSRSRNITYLPAGQSVLLQLPQ
B8: SDPR (protein, UniProt O95810 2-425, looked up)
Caveolae-associated protein 2: GEDAAQAEKFQHPGSDMRQEKPSSPSPMPSSTPSPSLNLGNTEEAIRDNSQVNAVTVLTLLDKLVNMLDAVQENQHKMEQRQISLEGSVKGIQNDLTKLSKYQASTSNTVSKLLEKSRKVSAHTRAVKERMDRQCAQVKRLENNHAQLLRRNHFKVLIFQEENEIPASVFVKQPVSGAVEGKEELPDENKSLEETLHTVDLSSDDDLPHDEEALEDSAEEKVEESRAEKIKRSSLKKVDSLKKAFSRQNIEKKMNKLGTKIVSVERREKIKKSLTSNHQKISSGKSSPFKVSPLTFGRKKVREGESHAENETKSEDLPSSEQMPNDQEEESFAEGHSEASLASALVEGEIAEEAAEKATSRGSNSGMDSNIDLTIVEDEEEESVALEQAQKVRYEGSYALTSEEAERSDGDPVQPAVLQVHQTS
B9: GPS2 (protein, UniProt Q13227 1-327, looked up)
G protein pathway suppressor 2: MPALLERPKLSNAMARALHRHIMMERERKRQEEEEVDKMMEQKMKEEQERRKKKEMEERMSLEETKEQILKLEEKLLALQEEKHQLFLQLKKVLHEEEKRRRKEQSDLTTLTSAAYQQSLTVHTGTHLLSMQGSPGGHNRPGTLMAADRAKQMFGPQVLTTRHYVGSAAAFAGTPEHGQFQGSPGGAYGTAQPPPHYGPTQPAYSPSQQLRAPSAFPAVQYLSQPQPQPYAVHGHFQPTQTGFLQPGGALSLQKQMEHANQQTGFSDSSSLRPMHPQALHPAPGLLASPQLPVQMQPAGKSGFAATSQPGPRLPFIQHSQNPRFYHK

Key:
[1] = tested on: Hsp90 complexes in Mia-PaCa-2 cell extract; assay: Nano-LC-MS/MS of PU-beads pull-downs; type: binding, human; conditions: protein identified in PU-beads pull-down of Mia-PaCa-2 cell extract; QSTAR-Elite QTof MS
Procedure, shortened: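 They came from PU-bead pull-downs of pre-cleared lysates (control beads, overnight, 4 °C), eluted by boiling in 2% SDS, gel-separated and run by data-dependent nano-ESI QTof MS/MS.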

[2] = tested on: Hsp90 complexes in K562 cell extract; assay: Nano-LC-MS/MS of PU-beads pull-downs; type: binding; conditions: protein identified in PU-beads pull-down of K562 cell extract, QSTAR-Elite QTof MS
Procedure, shortened: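 Proteins were identified by data-dependent nano LC-MS/MS (QTof, ESI) and Mascot searching (p<0.05), then reported as spectral counts and coverage via Scaffold. Inputs were PU-bead versus control-bead pull-downs from lysate pre-cleared with control beads overnight at 4 °C, eluted by boiling in 2% SDS.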

Row | Molecule | Number of Assigned Spectra, Mia-Paca 2 [1] | Number of Assigned Spectra, K562 Prep 1 [2] | Number of Assigned Spectra, K562 Prep 2 [2]
1 | B1 | 2 | 1 | 0
2 | B2 | 0 | 3 | 0
3 | B3 | 2 | 1 | 0
4 | B4 | 0 | 7 | 0
5 | B5 | 0 | 5 | 2
6 | B6 | 0 | 5 | 1
7 | B7 | 0 | 5 | 0
8 | B8 | 4 | 0 | 0
9 | B9 | 0 | 5 | 0
